T1: IPO5 (Homo sapiens), O00410
T1 chain: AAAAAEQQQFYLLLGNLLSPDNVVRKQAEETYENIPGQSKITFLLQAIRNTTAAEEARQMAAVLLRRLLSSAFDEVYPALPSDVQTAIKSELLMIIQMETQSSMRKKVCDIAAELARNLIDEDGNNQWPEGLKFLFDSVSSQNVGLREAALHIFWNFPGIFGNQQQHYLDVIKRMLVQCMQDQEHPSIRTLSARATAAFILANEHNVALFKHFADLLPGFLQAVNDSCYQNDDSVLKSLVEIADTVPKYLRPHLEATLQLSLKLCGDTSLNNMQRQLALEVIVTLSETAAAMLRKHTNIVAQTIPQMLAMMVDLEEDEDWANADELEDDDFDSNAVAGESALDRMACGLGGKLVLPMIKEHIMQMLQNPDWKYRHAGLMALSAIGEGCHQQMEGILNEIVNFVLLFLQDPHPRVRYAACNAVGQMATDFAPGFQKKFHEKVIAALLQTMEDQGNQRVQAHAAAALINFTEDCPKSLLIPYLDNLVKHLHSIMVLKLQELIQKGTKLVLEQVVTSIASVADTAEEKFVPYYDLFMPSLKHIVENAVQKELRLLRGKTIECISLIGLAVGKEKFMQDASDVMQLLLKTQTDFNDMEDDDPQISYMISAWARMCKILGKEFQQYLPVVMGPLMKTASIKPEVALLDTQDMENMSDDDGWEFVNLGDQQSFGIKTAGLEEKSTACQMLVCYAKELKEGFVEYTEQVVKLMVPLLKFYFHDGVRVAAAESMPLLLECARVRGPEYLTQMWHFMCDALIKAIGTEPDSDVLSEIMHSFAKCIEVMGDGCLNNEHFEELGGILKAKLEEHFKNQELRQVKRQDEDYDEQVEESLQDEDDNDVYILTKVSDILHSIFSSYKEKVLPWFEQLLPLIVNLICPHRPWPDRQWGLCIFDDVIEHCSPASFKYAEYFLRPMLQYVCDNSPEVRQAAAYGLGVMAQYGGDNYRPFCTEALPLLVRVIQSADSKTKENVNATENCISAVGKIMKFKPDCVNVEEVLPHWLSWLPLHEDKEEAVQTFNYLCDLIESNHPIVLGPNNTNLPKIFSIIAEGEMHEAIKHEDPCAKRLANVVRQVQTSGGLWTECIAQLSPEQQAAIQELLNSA

B1: recombinant IPO5 (importin β3/kap β3), O00410-1 1-1097 (natural protein)
chain: MAAAAAEQQQFYLLLGNLLSPDNVVRKQAEETYENIPGQSKITFLLQAIRNTTAAEEARQMAAVLLRRLLSSAFDEVYPALPSDVQTAIKSELLMIIQMETQSSMRKKVCDIAAELARNLIDEDGNNQWPEGLKFLFDSVSSQNVGLREAALHIFWNFPGIFGNQQQHYLDVIKRMLVQCMQDQEHPSIRTLSARATAAFILANEHNVALFKHFADLLPGFLQAVNDSCYQNDDSVLKSLVEIADTVPKYLRPHLEATLQLSLKLCGDTSLNNMQRQLALEVIVTLSETAAAMLRKHTNIVAQTIPQMLAMMVDLEEDEDWANADELEDDDFDSNAVAGESALDRMACGLGGKLVLPMIKEHIMQMLQNPDWKYRHAGLMALSAIGEGCHQQMEGILNEIVNFVLLFLQDPHPRVRYAACNAVGQMATDFAPGFQKKFHEKVIAALLQTMEDQGNQRVQAHAAAALINFTEDCPKSLLIPYLDNLVKHLHSIMVLKLQELIQKGTKLVLEQVVTSIASVADTAEEKFVPYYDLFMPSLKHIVENAVQKELRLLRGKTIECISLIGLAVGKEKFMQDASDVMQLLLKTQTDFNDMEDDDPQISYMISAWARMCKILGKEFQQYLPVVMGPLMKTASIKPEVALLDTQDMENMSDDDGWEFVNLGDQQSFGIKTAGLEEKSTACQMLVCYAKELKEGFVEYTEQVVKLMVPLLKFYFHDGVRVAAAESMPLLLECARVRGPEYLTQMWHFMCDALIKAIGTEPDSDVLSEIMHSFAKCIEVMGDGCLNNEHFEELGGILKAKLEEHFKNQELRQVKRQDEDYDEQVEESLQDEDDNDVYILTKVSDILHSIFSSYKEKVLPWFEQLLPLIVNLICPHRPWPDRQWGLCIFDDVIEHCSPASFKYAEYFLRPMLQYVCDNSPEVRQAAAYGLGVMAQYGGDNYRPFCTEALPLLVRVIQSADSKTKENVNATENCISAVGKIMKFKPDCVNVEEVLPHWLSWLPLHEDKEEAVQTFNYLCDLIESNHPIVLGPNNTNLPKIFSIIAEGEMHEAIKHEDPCAKRLANVVRQVQTSGGLWTECIAQLSPEQQAAIQELLNSA
B2: HIV-1 Rev NLS peptide NLS peptide, P04325 (peptide)
chain: TRQARRNRRRRWRERQR

Assays:
[1] = biological target: NS5A NLS synthetic peptide (fused to penetratin) (hepatitis C virus | not stated); experiment: ELISA; plates coated with synthetic peptide (10 µg/ml, carbonate buffer pH 9.6); increasing concentrations of recombinant NTF, 2 h, room temperature; anti-HIS detection; apparent Kd; conditions: remark: other sources report otherwise
[2] = biological target: Core NLS 4 synthetic peptide (fused to penetratin) (hepatitis C virus | not stated); experiment: as above; conditions: remark: other sources report otherwise
[3] = biological target: NS3 NLS 2 synthetic peptide (fused to penetratin) (hepatitis C virus | not stated); experiment: as above; conditions: remark: other sources report otherwise
[4] = biological target: NS3 NLS 1 synthetic peptide (fused to penetratin) (hepatitis C virus | not stated); experiment: as above; conditions: remark: other sources report otherwise
[5] = biological target: T1, IPO5 (Homo sapiens), O00410; conditions: modification not given

Row | Binder | Kd [1] | Kd [2] | Kd [3] | Kd [4] | Kd [5]
1 | B1 | 32.3 nM | 105 nM | 35.8 nM | 33.8 nM | –
2 | B2 | – | – | – | – | 44 nM
